# Measured values: patent US20200164032A1
# Experiments:
# [1] = biological target: CXCL10 (as tested against T17; species not stated)
# [2] = biological target: CXCL12 (hSDF-1b) (Homo sapiens) (UniProt P48061)
# [3] = biological target: XCL1 (as tested against T17; species not stated)
# human CCL2 (human) [4] = biological target: human CCL2 (human) (UniProt P13500); assay: SPR, T17 amine-coupled to CM5 chip
# murine CCL2 (mouse) [5] = biological target: murine CCL2 (mouse) (UniProt P10148); assay: SPR, T17 amine-coupled to CM5 chip
# Sequence of murine CCL2 (mouse) (P10148 24-148 limits assumed): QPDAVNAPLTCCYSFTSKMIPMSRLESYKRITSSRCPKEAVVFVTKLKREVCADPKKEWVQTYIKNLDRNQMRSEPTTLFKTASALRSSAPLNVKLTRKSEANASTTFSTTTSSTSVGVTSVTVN
# murine CCL3 (mouse) [6] = biological target: murine CCL3 (mouse) (UniProt P10855); assay: SPR, T17 amine-coupled to CM5 chip
# Sequence of murine CCL3 (mouse) (P10855 24-92 limits assumed): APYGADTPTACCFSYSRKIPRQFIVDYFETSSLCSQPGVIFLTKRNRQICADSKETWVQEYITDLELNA
# CCL9 [7] = biological target: CCL9 (UniProt P51670); assay: SPR (Biacore T-100), T17 on CM5 chip; t1/2
# Sequence of CCL9 (P51670 22-122 limits assumed): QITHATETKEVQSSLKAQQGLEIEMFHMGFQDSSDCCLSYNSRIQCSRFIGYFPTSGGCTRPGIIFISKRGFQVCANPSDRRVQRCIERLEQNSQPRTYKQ
# human CCL2 (human) [8] = biological target: human CCL2 (human) (UniProt P13500); assay: SPR (Biacore T-100), T17 on CM5 chip; t1/2
# murine CCL11 (mouse) [9] = biological target: murine CCL11 (mouse) (UniProt P48298); assay: SPR (Biacore T-100), T17 on CM5 chip; t1/2
# Sequence of murine CCL11 (mouse) (P48298 24-97 limits assumed): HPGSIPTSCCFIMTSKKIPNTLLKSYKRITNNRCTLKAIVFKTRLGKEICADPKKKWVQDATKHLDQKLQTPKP
# murine CCL12 (mouse) [10] = biological target: murine CCL12 (mouse) (UniProt Q62401); assay: SPR (Biacore T-100), T17 on CM5 chip; t1/2
# Sequence of murine CCL12 (mouse) (Q62401 23-104 limits assumed): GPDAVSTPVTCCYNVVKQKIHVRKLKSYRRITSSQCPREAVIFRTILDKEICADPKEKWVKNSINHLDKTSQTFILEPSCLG
# murine CCL2 (mouse) [11] = biological target: murine CCL2 (mouse) (UniProt P10148); assay: SPR (Biacore T-100), T17 on CM5 chip; t1/2
# murine CCL20 (mouse) [12] = biological target: murine CCL20 (mouse) (UniProt O89093); assay: SPR (Biacore T-100), T17 on CM5 chip; t1/2
# Sequence of murine CCL20 (mouse) (O89093 28-97 limits assumed): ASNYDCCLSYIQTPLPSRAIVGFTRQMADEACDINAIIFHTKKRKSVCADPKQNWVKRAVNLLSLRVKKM
# murine CCL21 (mouse) [13] = biological target: murine CCL21 (mouse) (UniProt P84444); assay: SPR (Biacore T-100), T17 on CM5 chip; t1/2
# Sequence of murine CCL21 (mouse) (P84444 24-133): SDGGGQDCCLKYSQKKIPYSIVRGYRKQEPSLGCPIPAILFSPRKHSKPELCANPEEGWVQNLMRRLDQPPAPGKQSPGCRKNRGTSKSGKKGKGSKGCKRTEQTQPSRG
# murine CCL24 (mouse) [14] = biological target: murine CCL24 (mouse) (UniProt Q9JKC0); assay: SPR (Biacore T-100), T17 on CM5 chip; t1/2
# Sequence of murine CCL24 (mouse) (Q9JKC0 27-119 limits assumed): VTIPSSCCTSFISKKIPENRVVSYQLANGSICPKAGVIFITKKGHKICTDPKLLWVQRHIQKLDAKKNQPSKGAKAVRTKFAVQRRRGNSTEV
# murine CCL3 (mouse) [15] = biological target: murine CCL3 (mouse) (UniProt P10855); assay: SPR (Biacore T-100), T17 on CM5 chip; t1/2
# murine CCL4 (mouse) [16] = biological target: murine CCL4 (mouse) (UniProt P14097); assay: SPR (Biacore T-100), T17 on CM5 chip; t1/2
# Sequence of murine CCL4 (mouse) (P14097 24-92 limits assumed): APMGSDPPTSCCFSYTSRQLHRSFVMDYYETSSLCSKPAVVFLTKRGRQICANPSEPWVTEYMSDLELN
# murine CCL5 (mouse) [17] = biological target: murine CCL5 (mouse) (UniProt P30882); assay: SPR (Biacore T-100), T17 on CM5 chip; t1/2
# Sequence of murine CCL5 (mouse) (P30882 24-91 limits assumed): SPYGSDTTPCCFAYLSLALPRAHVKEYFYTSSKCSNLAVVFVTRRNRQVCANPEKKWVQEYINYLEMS
# murine CCL8 (mouse) [18] = biological target: murine CCL8 (mouse) (UniProt Q9Z121); assay: SPR (Biacore T-100), T17 on CM5 chip; t1/2
# Sequence of murine CCL8 (mouse) (Q9Z121 24-97 limits assumed): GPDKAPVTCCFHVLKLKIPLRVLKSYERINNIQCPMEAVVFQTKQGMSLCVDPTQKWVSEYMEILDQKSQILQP
# CCL9 [19] = biological target: CCL9 (UniProt P51670); assay: SPR (Biacore T-100), T17 on CM5 chip; KD,eq
# human CCL2 (human) [20] = biological target: human CCL2 (human) (UniProt P13500); assay: SPR (Biacore T-100), T17 on CM5 chip; KD,eq
# murine CCL11 (mouse) [21] = biological target: murine CCL11 (mouse) (UniProt P48298); assay: SPR (Biacore T-100), T17 on CM5 chip; KD,eq
# murine CCL12 (mouse) [22] = biological target: murine CCL12 (mouse) (UniProt Q62401); assay: SPR (Biacore T-100), T17 on CM5 chip; KD,eq
# murine CCL2 (mouse) [23] = biological target: murine CCL2 (mouse) (UniProt P10148); assay: SPR (Biacore T-100), T17 on CM5 chip; KD,eq
# murine CCL20 (mouse) [24] = biological target: murine CCL20 (mouse) (UniProt O89093); assay: SPR (Biacore T-100), T17 on CM5 chip; KD,eq
# murine CCL21 (mouse) [25] = biological target: murine CCL21 (mouse) (UniProt P84444); assay: SPR (Biacore T-100), T17 on CM5 chip; KD,eq
# murine CCL24 (mouse) [26] = biological target: murine CCL24 (mouse) (UniProt Q9JKC0); assay: SPR (Biacore T-100), T17 on CM5 chip; KD,eq
# murine CCL3 (mouse) [27] = biological target: murine CCL3 (mouse) (UniProt P10855); assay: SPR (Biacore T-100), T17 on CM5 chip; KD,eq
# murine CCL4 (mouse) [28] = biological target: murine CCL4 (mouse) (UniProt P14097); assay: SPR (Biacore T-100), T17 on CM5 chip; KD,eq
# murine CCL5 (mouse) [29] = biological target: murine CCL5 (mouse) (UniProt P30882); assay: SPR (Biacore T-100), T17 on CM5 chip; KD,eq
# murine CCL8 (mouse) [30] = biological target: murine CCL8 (mouse) (UniProt Q9Z121); assay: SPR (Biacore T-100), T17 on CM5 chip; KD,eq
# CCL9 [31] = biological target: CCL9 (UniProt P51670); assay: SPR (Biacore T-100), T17 on CM5 chip; KD,kin
# human CCL2 (human) [32] = biological target: human CCL2 (human) (UniProt P13500); assay: SPR (Biacore T-100), T17 on CM5 chip; KD,kin
# murine CCL11 (mouse) [33] = biological target: murine CCL11 (mouse) (UniProt P48298); assay: SPR (Biacore T-100), T17 on CM5 chip; KD,kin
# murine CCL12 (mouse) [34] = biological target: murine CCL12 (mouse) (UniProt Q62401); assay: SPR (Biacore T-100), T17 on CM5 chip; KD,kin
# murine CCL2 (mouse) [35] = biological target: murine CCL2 (mouse) (UniProt P10148); assay: SPR (Biacore T-100), T17 on CM5 chip; KD,kin
# murine CCL20 (mouse) [36] = biological target: murine CCL20 (mouse) (UniProt O89093); assay: SPR (Biacore T-100), T17 on CM5 chip; KD,kin
# murine CCL21 (mouse) [37] = biological target: murine CCL21 (mouse) (UniProt P84444); assay: SPR (Biacore T-100), T17 on CM5 chip; KD,kin
# murine CCL24 (mouse) [38] = biological target: murine CCL24 (mouse) (UniProt Q9JKC0); assay: SPR (Biacore T-100), T17 on CM5 chip; KD,kin
# murine CCL3 (mouse) [39] = biological target: murine CCL3 (mouse) (UniProt P10855); assay: SPR (Biacore T-100), T17 on CM5 chip; KD,kin
# murine CCL4 (mouse) [40] = biological target: murine CCL4 (mouse) (UniProt P14097); assay: SPR (Biacore T-100), T17 on CM5 chip; KD,kin
# murine CCL5 (mouse) [41] = biological target: murine CCL5 (mouse) (UniProt P30882); assay: SPR (Biacore T-100), T17 on CM5 chip; KD,kin
# murine CCL8 (mouse) [42] = biological target: murine CCL8 (mouse) (UniProt Q9Z121); assay: SPR (Biacore T-100), T17 on CM5 chip; KD,kin
# CCL9 [43] = biological target: CCL9 (UniProt P51670); assay: SPR (Biacore T-100), T17 on CM5 chip; global 1:1 mass transport fit
# human CCL2 (human) [44] = biological target: human CCL2 (human) (UniProt P13500); assay: as above
# murine CCL11 (mouse) [45] = biological target: murine CCL11 (mouse) (UniProt P48298); assay: as above
# murine CCL12 (mouse) [46] = biological target: murine CCL12 (mouse) (UniProt Q62401); assay: as above
# murine CCL2 (mouse) [47] = biological target: murine CCL2 (mouse) (UniProt P10148); assay: as above
# murine CCL20 (mouse) [48] = biological target: murine CCL20 (mouse) (UniProt O89093); assay: as above
# murine CCL21 (mouse) [49] = biological target: murine CCL21 (mouse) (UniProt P84444); assay: as above
# murine CCL24 (mouse) [50] = biological target: murine CCL24 (mouse) (UniProt Q9JKC0); assay: as above
# murine CCL3 (mouse) [51] = biological target: murine CCL3 (mouse) (UniProt P10855); assay: as above
# murine CCL4 (mouse) [52] = biological target: murine CCL4 (mouse) (UniProt P14097); assay: as above
# murine CCL5 (mouse) [53] = biological target: murine CCL5 (mouse) (UniProt P30882); assay: as above
# murine CCL8 (mouse) [54] = biological target: murine CCL8 (mouse) (UniProt Q9Z121); assay: as above
# [55] = biological target: CXCL10 (as tested against T17; species not stated); assay: BLI (Octet Red), biotinylated T17 on streptavidin biosensors; t1/2
# [56] = biological target: CXCL12 (hSDF-1a) (Homo sapiens) (UniProt P48061); assay: as above
# Sequence of CXCL12 (hSDF-1a) (Homo sapiens) (P48061 22-89 limits assumed): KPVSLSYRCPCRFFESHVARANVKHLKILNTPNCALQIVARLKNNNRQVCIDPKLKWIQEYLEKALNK
# [57] = biological target: CXCL12 (hSDF-1b) (Homo sapiens) (UniProt P48061); assay: as above
# [58] = biological target: XCL1 (as tested against T17; species not stated); assay: as above
# [59] = biological target: CXCL10 (as tested against T17; species not stated); assay: BLI (Octet Red), biotinylated T17 on streptavidin biosensors; KD,eq
# [60] = biological target: CXCL12 (hSDF-1b) (Homo sapiens) (UniProt P48061); assay: as above
# [61] = biological target: XCL1 (as tested against T17; species not stated); assay: as above
# [62] = biological target: CXCL10 (as tested against T17; species not stated); assay: BLI (Octet Red), biotinylated T17 on streptavidin biosensors; KD,kin
# [63] = biological target: CXCL12 (hSDF-1b) (Homo sapiens) (UniProt P48061); assay: as above
# [64] = biological target: XCL1 (as tested against T17; species not stated); assay: as above
# Sequence of human CCL2 (human) (P13500 24-99 limits assumed): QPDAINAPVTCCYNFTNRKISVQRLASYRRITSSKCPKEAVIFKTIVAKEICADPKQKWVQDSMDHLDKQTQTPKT
# Sequence of CXCL12 (hSDF-1b) (Homo sapiens) (P48061 22-93): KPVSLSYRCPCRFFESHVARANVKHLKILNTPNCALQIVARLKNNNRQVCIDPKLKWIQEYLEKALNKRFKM
substance,measurement,setting,value
"T17 chemokine decoy receptor of Rodent herpesvirus Texas (RHVT), C-terminal His tag (6 histidine residues) fusion",koff,[1],0.0174 s⁻¹
same,kon,[1],812000 M⁻¹ s⁻¹
same,koff,[2],0.0173 s⁻¹
same,kon,[2],436000 M⁻¹ s⁻¹
same,koff,[3],0.0127 s⁻¹
same,kon,[3],1.23e+06 M⁻¹ s⁻¹
same,complex half-life,human CCL2 (human) [4],26 s
same,complex half-life,murine CCL2 (mouse) [5],225 s
same,complex half-life (t1/2),murine CCL3 (mouse) [6],90 s
same,t1/2,CCL9 [7],23.3 s
same,t1/2,human CCL2 (human) [8],26.2 s
same,t1/2,murine CCL11 (mouse) [9],109 s
same,t1/2,murine CCL12 (mouse) [10],17.5 s
same,t1/2,murine CCL2 (mouse) [11],225 s
same,t1/2,murine CCL20 (mouse) [12],36.1 s
same,t1/2,murine CCL21 (mouse) [13],52.5 s
same,t1/2,murine CCL24 (mouse) [14],131 s
same,t1/2,murine CCL3 (mouse) [15],90.7 s
same,t1/2,murine CCL4 (mouse) [16],32.7 s
same,t1/2,murine CCL5 (mouse) [17],196 s
same,t1/2,murine CCL8 (mouse) [18],33.9 s
same,Kd,CCL9 [19],39.1 nM
same,Kd,human CCL2 (human) [20],14.9 nM
same,Kd,murine CCL11 (mouse) [21],33.5 nM
same,Kd,murine CCL12 (mouse) [22],12.3 nM
same,Kd,murine CCL2 (mouse) [23],38.9 nM
same,Kd,murine CCL20 (mouse) [24],23.4 nM
same,Kd,murine CCL21 (mouse) [25],22.3 nM
same,Kd,murine CCL24 (mouse) [26],11.9 nM
same,Kd,murine CCL3 (mouse) [27],6.76 nM
same,Kd,murine CCL4 (mouse) [28],4.74 nM
same,Kd,murine CCL5 (mouse) [29],4.15 nM
same,Kd,murine CCL8 (mouse) [30],3.79 nM
same,Kd,CCL9 [31],18 nM
same,Kd,human CCL2 (human) [32],1.76 nM
same,Kd,murine CCL11 (mouse) [33],0.37 nM
same,Kd,murine CCL12 (mouse) [34],2.54 nM
same,Kd,murine CCL2 (mouse) [35],7.15 nM
same,Kd,murine CCL20 (mouse) [36],5.62 nM
same,Kd,murine CCL21 (mouse) [37],15.5 nM
same,Kd,murine CCL24 (mouse) [38],10.5 nM
same,Kd,murine CCL3 (mouse) [39],3.25 nM
same,Kd,murine CCL4 (mouse) [40],0.16 nM
same,Kd,murine CCL5 (mouse) [41],1.47 nM
same,Kd,murine CCL8 (mouse) [42],1.23 nM
same,koff,CCL9 [43],0.0298 s⁻¹
same,kon,CCL9 [43],1.65e+06 M⁻¹ s⁻¹
same,koff,human CCL2 (human) [44],0.0265 s⁻¹
same,kon,human CCL2 (human) [44],1.51e+07 M⁻¹ s⁻¹
same,koff,murine CCL11 (mouse) [45],0.00637 s⁻¹
same,kon,murine CCL11 (mouse) [45],1.73e+07 M⁻¹ s⁻¹
same,koff,murine CCL12 (mouse) [46],0.0396 s⁻¹
same,kon,murine CCL12 (mouse) [46],1.56e+07 M⁻¹ s⁻¹
same,koff,murine CCL2 (mouse) [47],0.00308 s⁻¹
same,kon,murine CCL2 (mouse) [47],431000 M⁻¹ s⁻¹
same,koff,murine CCL20 (mouse) [48],0.0192 s⁻¹
same,kon,murine CCL20 (mouse) [48],3.42e+06 M⁻¹ s⁻¹
same,koff,murine CCL21 (mouse) [49],0.0132 s⁻¹
same,kon,murine CCL21 (mouse) [49],851000 M⁻¹ s⁻¹
same,koff,murine CCL24 (mouse) [50],0.0053 s⁻¹
same,kon,murine CCL24 (mouse) [50],506000 M⁻¹ s⁻¹
same,koff,murine CCL3 (mouse) [51],0.0076 s⁻¹
same,kon,murine CCL3 (mouse) [51],2.35e+06 M⁻¹ s⁻¹
same,koff,murine CCL4 (mouse) [52],0.0212 s⁻¹
same,kon,murine CCL4 (mouse) [52],8.12e+07 M⁻¹ s⁻¹
same,koff,murine CCL5 (mouse) [53],0.0035 s⁻¹
same,kon,murine CCL5 (mouse) [53],2.41e+06 M⁻¹ s⁻¹
same,koff,murine CCL8 (mouse) [54],0.0205 s⁻¹
same,kon,murine CCL8 (mouse) [54],1.66e+07 M⁻¹ s⁻¹
same,t1/2,[55],39.8 s
same,t1/2,[56],20.2 s
same,t1/2,[57],40.1 s
same,t1/2,[58],54.6 s
same,Kd,[59],24.4 nM
same,Kd,[60],44.2 nM
same,Kd,[61],19.2 nM
same,Kd,[62],21.4 nM
same,Kd,[63],39.6 nM
same,Kd,[64],10.4 nM
